These are literature values, as cited in paper PMC12757075.

As usually defined, the Kd is the concentration at which binding is half-saturated.

This series deals with actin filament barbed end (Oryctolagus cuniculus) (UniProt P68135).

Turning to VASP (from UniProt P50552), the Kd is 9.2 nM.
